Source: PMC3937304, “The Secreted Triose Phosphate Isomerase of Brugia malayi Is Required to Sustain Microfilaria Production In Vivo” (PLoS Pathogens, 2014)

System: O=C(CO)COP(=O)(O)O
Test: purified protein
Settings: DHAP to G3P direction, 100 mM TEA-HCl pH 7.6, 1 mM EDTA, 1 mM NAD+, 5 mM disodium hydrogen arsenate, 25 °C, 0.16-10 mM DHAP

| Substance | Km [µM] |
| --- | --- |
| recombinant Bm-TPI (Brugia malayi) | 1800 |
| recombinant Ls-TPI (Litomosoides sigmodontis) | 1933 |
